Results from patent publication US6773704B1, “Methods of treating vascular disease associated with cystatin C deficiency” (The Brigham and Women's Hospital, Inc., priority 1999, dated 2004).
“Also recorded” adds a separate entry of the source.

B1: recombinant cystatin C: 13 kDa extracellular inhibitor of cysteine proteases, human sequence SEQ ID NO:1; native or recombinant (protein, UniProt P01034 27-146, looked up)
Cystatin-C: SSPGKPPRLVGGPMDASVEEEGVRRALDFAVGEYNKASNDMYHSRALQVVRARKQIVAGVNYFLDVELGRTTCTKTQPNLDNCPFHDQPHLKRKAFCSFQIYAVPWQGTMTLSKSTCQDA
B2: IFN-γ: pro-inflammatory cytokine used at 500 units/ml to stimulate smooth muscle cell cathepsin S-dependent elastase activity (protein, UniProt P01579 24-161, looked up)
Interferon gamma: QDPYVKEAENLKKYFNAGHSDVADNGTLFLGILKNWKEESDRKIMQSQIVSFYFKLFKNFKDDQSIQKSVETIKEDMNVKFFNSNKKKRDDFEKLTNYSVTDLNVQRKAIHELIQVMAELSPAAKTGKRKRSQMLFRG

Key:
Format in all cases: cell-based, human
[1] = tested on: IFN-γ-stimulated smooth muscle cells elastase activity; experiment: Elastase assay: smooth muscle cells co-cultured with insoluble [3H]-elastin
Text: FIG. 2 is a bar graph showing that smooth muscle cells elastase activity is inhibited by recombinant cystatin C. Interferon-γ stimulated smooth muscle cells were co-cultured in serum-free medium with insoluble elastin in the presence of increasing concentrations of cystatin C as indicated in the panel. After 72 hrs, media were collected and soluble radioactivity measured as an index of elastin degradation.
FIG. 3 is a graph showing that TGF-β1 blocks smooth muscle cells elastase activity. Interferon-stimulated smooth muscle cells were co-cultured with elastin as above in the presence of increasing amounts of TGF-β1 and elastin degradation quantified after 72 hrs.
Prior studies documenting the capacity of macrophages to use cysteine proteases to degrade elastin found macrophage elastolytic activity to be insensitive to the presence of pericellular serum protease inhibitors (Reedy et al., 92 Porch. Natl. Acad. Sci. 3849-853 (1995); Chapman et al., 74 J. Clin. Invest. 1693-700 (1984)). Given the marked reduction of cystatin C in atherosclerotic and aneurysmal lesions and the clinical correlation in EXAMPLES 1-3, the influence of cystatin C on the elastolytic activity of cultured vascular smooth muscle cells was examined. Vascular smooth muscle cells were stimulated with IFN-γ (500 units/ml) for 24 hours to augment cathepsin S-dependent elastase activity (Sukhova et al., 102 J. Clin. Invest. 576-83 (1998)). In co-cultures with insoluble elastin, the addition of as little as 10 ng/ml of recombinant cystatin C inhibits elastin degradation (FIG. 2). Higher concentrations of cystatin C block >75% of the IFNγ-induced activity, confirming that smooth muscle cells elastase activity depends largely on elastolytic cysteine proteases.
The elastase assay was performed as follows: Smooth muscle cells were cultured on 24-well plates in 10% FBS DMEM until 100% confluence (5×10^5 cells/well). […] The digested elastin radioactivity was counted using 200 μl of medium and the data presented as μg elastin degraded per 10^6 cells in 24 hours.

[2] = tested on: cathepsin S and cystatin C mRNA in smooth muscle cells; experiment: Northern blot analysis of smooth muscle cell RNA
Experimental: Total RNAs were isolated from control and IFN-γ-stimulated smooth muscle cells for Northern blot analysis. Northern blot analysis was performed as follows: After INF-γ and TGF-β1 treatments, 1.5×10^7 smooth muscle cells were lysed in 5 ml of guanidium. isothiocyanate (GTC) lysis buffer for RNA preparation as described (Sukhova et al., 102 J. Clin. Invest. 576-83 (1998)). Twenty micrograms of total RNA from smooth muscle cells were separated on 1.2% agarose gel and blotted on Zeta-Probe GT blotting membrane (Bio-Rad Laboratories, Inc.). A human cystatin C probe was generated by polymerase chain reaction using cystatin C cDNA. The 500 bp cystatin C cDNA fragment and cathepsin S cDNA probe (Sukhova et al., 102 J. Clin. Invest 576-83 (1998)) were labeled with [^32P]-dCTP and purified with NENSORB 20 column (NEN Life Science Products, Inc.) before hybridizing as previously described (Sukhova et al., 102 J. Clin. Invest. 576-83 (1998)).

[3] = tested on: cathepsin S and cystatin C protein/secretion by smooth muscle cells; experiment: Immunoblot analysis of smooth muscle cell lysates and culture medium; settings: for cystatin C secretion (level of secreted cystatin C): cultured vascular smooth muscle cells, culture medium
Experimental: Human sapheneous vein smooth muscle cells were cultured in Swell plates in Dulbecco's Modification of Eagle's Medium (DMEM) containing 10% fetal bovine serum (FBS) until confluent. […] Culture medium was then collected and centrifuged at 16000×g for 10 min. Proteins were precipitated with 20% trichloroacetic acid on ice for 30 min. followed by repeat centrifugation. The protein pellet was briefly washed with 100% ethanol and resuspended in electrophoresis sample buffer smooth muscle cells were lysed directly into sample buffer after two washes with 1×PBS. Both cell lysates and proteins from culture medium were separated on SDS-PAGE for immunoblot analysis with antibodies against human cathepsin S and cystatin C as described above. All Western blots were developed with Western Blot Chemiluminescence Reagent (NEN Life Science Products, Inc., Boston, Mass., USA).

[4] = smooth muscle cells, TGF-β1 5 ng/ml
[5] = smooth muscle cells stimulated with IFN-γ (500 units/ml)

Molecule	concentration that almost completely blocks elastase activity ([1]; IFN-γ-stimulated smooth muscle cells, elastin degradation after 72 hrs)	level of cathepsin S mRNA [2, 4]	level of cystatin C mRNA [2, 4]	cystatin C secretion (level of secreted cystatin C) [3]	time after exposure at which cystatin C biosynthesis increases ([3]; smooth muscle cells exposed to TGF-β1)	level of cathepsin S protein [3, 4]	concentration that inhibits elastin degradation (elastolytic activity) ([1]; IFN-γ (500 units/ml) stimulated vascular smooth muscle cells co-cultured with insoluble elastin, 72 hrs)	block of IFNγ-induced elastase activity ([1]; higher concentrations of cystatin C (tested 0-500 ng/ml), IFN-γ-stimulated smooth muscle cells)	cathepsin S mRNA [2, 5]	secretion of active cathepsin S [3, 5]
TGF-β1: transforming growth factor-β1, native or recombinant cytokine (SEQ ID NO:2); induces cystatin C secretion	≤ 1 ng/mL	does not change	does not change	markedly increases; also recorded: stimulates; also recorded: potent inducer	one	does not change				
B1							≤ 10 ng/mL	> 75%		
B2				no effect					induces	induces
